Reference: patent US20140329787A1, “PHYTOPHTHORA PHOSPHOLIPASE C” (Deakin University, priority 2011, published 2014)
“Also recorded” adds a separate entry of the source.

What was measured:
[1] = test system: Phytophthora cinnamomi; format: cell-based
[2] = test system: P. cinnamomi; experiment: Hyphal growth rate; format: cell-based, Phytophthora cinnamomi; conditions: data not shown
[3] = test system: P. sojae; experiment: Hyphal growth rate; format: cell-based, Phytophthora sojae; conditions: data not shown
[4] = IP3 production from bovine brain phosphatidylinositols, ESI-MS; format: biochemical; conditions: CaCl2 or EDTA; three protein batches
Description: All mass spectra were produced using a 6210 MSDTOF mass spectrometer (Agilent Technologies, Australia) with the following conditions: drying gas, nitrogen ([…], 350° C.); nebulizer gas, nitrogen (16 psi); capillary voltage, ±4.0 kV; vaporizer temperature, 350° C.; and cone voltage, 60V, 5 μL.
To test for phospholipase C-like function of Alt-PLC, electrospray ionization mass spectrometry (ESI-MS) was utilized to identify of inositol(1,4,5)triphosphate (IP3) produced from reactions of Alt-PLC with lipids.
Three separate batches of protein (purified from independent transformations) were prepared and reacted with a mixture of phosphatidylinositols from bovine brain in the presence of CaCl2 or in the presence of EDTA. Chloroform phase-extraction was performed and the aqueous phase analysed for the presence of IP3 by ESI-MS.

[5] = In-solution hydrolysis of diC8-PI(4,5)P2, products by ESI-MS, TLC and NMR; format: biochemical; conditions: with calcium, 60 min
Description: Five milligrams of lyophilised, synthetic 1,2-dioctanol-D-myo-phosphatidylinositol(4,5)bisphosphate (diC8-PI(4,5)P2: Echelon Biosciences, USA) was resuspended in 500 μl of 20 mM tris pH:8.0; to this, 100 μl of 1M CaCl2 and 400 μl of refolded Alt-PLC (0.1 mg/ml) in buffer A4 were added and the reaction allowed to proceed for 60 min. The reaction was stopped by phase separation with the addition of 3.75 ml of chloroform:methanol:12N HCl (2:4:0.1) and mixed thoroughly before the addition of 1.25 ml of chloroform. The solution was then vortexed for 30 sec before addition of 1.25 ml of ddH2O and then further vortexed for 30 seconds. The sample was then centrifuged at 1000 rpm for 10 min in a swinging bucket rotor at 4° C. The upper aqueous layer (containing inositols) and the lower chloroform layer (containing all lipids and phospholipids) were separately lyophilised in glass tubes and stored at −80° C. for further analysis. Further separation of polar and non-polar lipids, developed by the hydrolysis reaction, was performed by resuspending the lyophilised, chloroform layer in 1 mil 75% methanol and then adding 1 ml of n-hexane. […]
The unusual nature of this double hydrolysis led the Applicant to perform NMR on the MAG and acyl arg fractions as an additional confirmation of the ESI-MS results. […] NMR spectra were recorded at 400 MHz at −55° C. […]

[6] = Hydrolysis of PIPx, neutral-lipid TLC; format: biochemical; conditions: 0.2 mg/ml enzyme; listed as Alt-PLC1
Description: Lipid samples of 0.5 μl were applied to silica 60 TLC plates and allowed to dry prior to the addition of more sample. Neutral lipids were applied to 10×20 cm pre-absorption zone-bearing silica-60 plates (Sigma-Aldrich, USA) and resolved in a solvent mixture of hexane:diethyl ether:acetic acid (9:1:0.5). Phospholipids were resolved on 20×20 cm silica-60 plates (Merck, Australia), without a pre-absorption zone, in a solvent mixture of chloroform:methanol:acetic acid:water (90:40:12:2). Lipids were detected by spraying the dried TLC plates with a solution of 0.05% rhodamine B (Sigma) in methanol and destaining was performed by repeated spraying with 5 M KOH. Lipid spots were then visualised following UV excitation at 312 nm.
Alt-PLC and Alt-PLC2 were refolded into buffer A4 at a concentration of 0.2 mg/ml and a hydrolysis reaction was performed using PIPx (mixed phosphatidylinositols, Sigma) as the substrate. The reaction was performed as described previously and the resultant neutral lipids were extracted by diethyl ether phase extraction. The samples were analysed by neutral-lipid thin-layer chromatography, on silica 60 plates with a pre-absorption zone; the mobile phase employed was hexane: diethyl ether: acetic acid (9:1:0.5).

[7] = test system: E. coli; experiment: Growth curves of E. coli expressing Alt-PLC and truncations; format: cell-based; conditions: relative to E. coli not expressing Alt-PLC
Description: An analysis of function of the Alt-PLC truncations was performed using growth curves of Alt-PLC expressing E. coli cells (FIG. 28).
Therefore, growth curves of E. coli expressing Alt-PLC and the truncations allow determination of Alt-PLC function in vivo.

Molecule | PIP2 level and distribution in hyphae [1] | hyphal growth rate [2] | hyphal growth rate [3] | IP3 production (m/z 160.6) [4] | products of hydrolysis [5] | monoacylglycerol production / phospholipase C activity level in vitro [6] | growth of expressing E. coli (function in vivo) [7]
COc1ccc2c(c1)CC[C@@H]1[C@@H]2CC[C@]2(C)[C@@H](NCCCCCCN3C(=O)C=CC3=O)CC[C@@H]12 [U-73122] | PIP2 increased; also recorded: PIP2 showed an almost uniform membrane distribution, indicating uncontrolled accumulation | markedly reduces hyphal growth rate | markedly reduces hyphal growth rate |  |  |  | 
Alt-PLC: Phytophthora sojae alternative phospholipase C, SEQ ID NO: 5; codon optimised, his-tagged, expressed in E. coli (protein, listed as Phytophthora sojae, His tag, codon optimised, his-tagged, expressed in E. coli) MASGWRQKPRLDPWDPPSPPPLLEEAAPKPKPKTSRFSRRSTRAKSHARQQAQHVELEVEEHAEQRDRDKRRSLLASMFGERAQSRASRSSSDASALQSQTQTLVQREKAFRLVRHGSDPLLNDAFYATQVQVGNFVKMGWLTKQGHMWKSWKTRFFVLFSDGTFAYYKNKGRKKIKGCMQLNDGVVSVQHVDIRLADKAYVFQIEKGFYKLLCYCCSQFEAELWVAALRSVRRVAPPCYEMDLTATEEKAGSNAVTRHLNKIFITDKQIAKRLAEFKANTHDHSYAAIHNFIVELDDAIIDRHHLEFYQDAEIELLPGNELVRLIRRHVEDRVFIPLYAEAYASLETDKVKTRRSNLEQHLKVLKQKTQADFGISKDLSVCNWKQAISVVNMLDCVSLPTHKFEVILSAGKAIMELIAQYNGELFEVSDEMLTAIFRYVVTMSSLSDLPTLRALLKYGYQHHPASQNKANVVTAFLNAIKWVECFEAGDESYQFDSLALAGSRVSVSISTNDVGIQFTTDGNGRGAIVYNIRKQSQAALSAAIVPGLSLIAINHEPVIALEFAVKIDYSHRIEVDKSASYLGSQMPNSSWKMVDKDDHVSRSARPGSVDDLIRELVAGTEVDLVDVVSFVLFLDSFSSLNEVVDRLSAHVRNGVKSHGLIRLFIVVLLFRQSETKEADDLRDRFYSLISLNIDAKDKLVPLVEEYMSLYKEYFSLRGAGNYAVNYQAIPGMMSKVYGMESGFEPVSSGPFSAHLHRFVDAERWAEQCTLLTHAVFCKIPVRDFIPTGSKKKHSVEFTSIKRWFQHISAFVINAVLVQNTPEERAEVISFYLKLSLDAKKMMNEMQLLSDKGCREMNRLMRKTANPSMPYIGLYLQGFVGLNELPAFDKEGLVNANRLRRMGELAMEILHRQSVAYTLQHDEDVNKLLHVSLPYSSEESRYARSLELEPREADAIPLSDRGSYTLIDDDVDLENEVRESIGGDGTFGFRQWIRKQQVVHRNRSRSSVIALYEWV |  |  |  | IP3 was produced in the Ca^2+-activated reactions, but was not produced in the presence of EDTA | 1-monacylglycerol, a free fatty acid (FFA) and inositol(1,4,5)triphosphate | detection of monoacylglycerol production; also recorded: higher activity level in vitro than Alt-PLC2 | characteristic reduced growth of the bacteria
